The chains are these.
B1: N-terminal 17-residue truncated Q72L Arl1 with a C-terminal 6xHis-tag (natural protein, S. cerevisiae, UniProt P38116 18-183, looked up)
chain: ELRILILGLDGAGKTTILYRLQIGEVVTTKPTIGFNVETLSYKNLKLNVWDLGGLTSIRPYWRCYYADTAAVIFVVDSTDKDRMSTASKELHLMLQEEELQDAALLVFANKQDQPGALSASEVSKELNLVELKDRSWSIVASSAIKGEGITEGLDWLIDVIKEEQL
notes: Arl1, S. cerevisiae, the N-terminal 17 residues (amphipathic helix) removed, Q72L keeps it GTP-restricted; vector pMCSG28; mixed with Gea2 in buffer with 1 mM GTP; also called ΔNT17 Q72L Arl1; Arl1-GTP
B2: S. cerevisiae full-length Gea2 with an N-terminal 6xHis-tag (natural protein, UniProt P39993 1-1459, looked up)
chain: MSDREFVTVDPVTIIIKECINLSTAMRKYSKFTSQSGVAALLGGGSEIFSNQDDYLAHTFNNLNTNKHNDPFLSGFIQLRLMLNKLKNLDNIDSLTILQPFLLIVSTSSISGYITSLALDSLQKFFTLNIINESSQNYIGAHRATVNALTHCRFEGSQQLSDDSVLLKVVFLLRSIVDSPYGDLLSNSIIYDVLQTILSLACNNRRSEVLRNAAQSTMIAVTVKIFSKLKTIEPVNVNQIYINDESYTNDVLKADTIGTNVESKEEGSQEDPIGMKVNNEEAISEDDGIEEEHIHSEKSTNGAEQLDIVQKTTRSNSRIQAYADDNYGLPVVRQYLNLLLSLIAPENELKHSYSTRIFGLELIQTALEISGDRLQLYPRLFTLISDPIFKSILFIIQNTTKLSLLQATLQLFTTLVVILGNNLQLQIELTLTRIFSILLDDGTANNSSSENKNKPSIIKELLIEQISILWTRSPSFFTSTFINFDCNLDRADVSINFLKALTKLALPESALTTTESVPPICLEGLVSLVDDMFDHMKDIDREEFGRQKNEMEILKKRDRKTEFIECTNAFNEKPKKGIPMLIEKGFIASDSDKDIAEFLFNNNNRMNKKTIGLLLCHPDKVSLLNEYIRLFDFSGLRVDEAIRILLTKFRLPGESQQIERIIEAFSSAYCENQDYDPSKISDNAEDDISTVQPDADSVFILSYSIIMLNTDLHNPQVKEHMSFEDYSGNLKGCCNHKDFPFWYLDRIYCSIRDKEIVMPEEHHGNEKWFEDAWNNLISSTTVITEIKKDTQSVMDKLTPLELLNFDRAIFKQVGPSIVSTLFNIYVVASDDHISTRMITSLDKCSYISAFFDFKDLFNDILNSIAKGTTLINSSHDDELSTLAFEYGPMPLVQIKFEDTNTEIPVSTDAVRFGRSFKGQLNTVVFFRIIRRNKDPKIFSKELWLNIVNIILTLYEDLILSPDIFPDLQKRLKLSNLPKPSPEISINKSKESKGLLSTFASYLKGDEEPTEEEIKSSKKAMECIKSSNIAASVFGNESNITADLIKTLLDSAKTEKNADNSRYFEAELLFIIELTIALFLFCKEEKELGKFILQKVFQLSHTKGLTKRTVRRMLTYKILLISLCADQTEYLSKLINDELLKKGDIFTQKFFATNQGKEFLKRLFSLTESEFYRGFLLGNENFWKFLRKVTAMKEQSESIFEYLNESIKTDSNILTNENFMWVLGLLDEISSMGAVGNHWEIEYKKLTESGHKIDKENPYKKSIELSLKSIQLTSHLLEDNNDLRKNEIFAIIQALAHQCINPCKQISEFAVVTLEQTLINKIEIPTNEMESVEELIEGGLLPLLNSSETQEDQKILISSILTIISNVYLHYLKLGKTSNETFLKILSIFNKFVEDSDIEKKLQQLILDKKSIEKGNGSSSHGSAHEQTPESNDVEIEATAPIDDNTDDDNKPKLSDVEKD
notes: Gea2, S. cerevisiae, Arf guanine nucleotide exchange factor, 1459 residues, amplified from genomic DNA of BY4741, vector pMCSG21; Homodimer by mass photometry and cryo-EM; also called Gea2 dimer

The target of data set [1] is T1, ΔNT17 Q72L Arl1 in the Arl1–Gea2 complex (Saccharomyces cerevisiae, UniProt P38116, Q72L).
T1 construct: Arl1 lacking N-terminal 17 residues, Q72L, C-terminal 6xHis; full-length Gea2 (1459 residues, dimer), N-terminal 6xHis; both from E. coli NiCo21(DE3); two Arl1 on one Gea2 dimer; with ARF guanine-nucleotide exchange factor 2
T1 sequence (P38116 18-183 Q72L): B1 chain
T1 sequence (P39993 1-1459 partner): B2 chain
As to the kind of experiment: cryo-EM structure ([…] Å). In kind it is binding. To be noted: 1 mM GTP, 1 mM MgCl2, 1 mM TCEP, HEPES pH 7.4, 4 °C; Arl1 nucleotide site; Gea2 bound.

Data set [2] concerns the target B2. As to the kind of experiment: SEC; 0.74 μM Gea2 (monomer) with 10-fold molar excess of ΔNT17 Q72L Arl1, 20 mM HEPES pH 7.4, 150 mM NaCl, 1 mM MgCl2, 1 mM TCEP, 1 mM GTP, 4 °C overnight; Superose 6 Increase 10/300 GL; peak fractions on SDS-PAGE. To be noted: both partners purified. A general note: Size exclusion chromatography separates by hydrodynamic size, large species first.

Data set [3] concerns the molecule itself. The data set is described as follows: mass photometry; 44.2 nM Gea2, Refeyn TwoMP, calibrated with β-amylase and thyroglobulin.

The record followed here is article PMC10908827, “Structural insight into an Arl1–ArfGEF complex involved in Golgi recruitment of a GRIP-domain golgin” (Nature Communications, 2024).

One may read the stoichiometry N as a count of units in the complex or per binding partner.

For the molecule `Nc1nc2c(ncn2[C@@H]2O[C@H](COP(=O)(O)OP(=O)(O)OP(=O)(O)O)[C@@H](O)[C@H]2O)c(=O)[nH]1` [GTP], the “cryo-EM structure (3.3 Å)” value in data set [1] was “far away from the γ-phosphate of the bound GTP in our structure”.
For B1, the binding result in data set [2] is reported as “binds”.
As for B2, the “stoichiometry N” value in data set [3] was determined as 2.
